Assay results from patent WO2021110095A1 (dated 2021).

Target: human GPC3 full-length protein on cells (CHO-K1-hGPC3; cells expressing GPC3) (human, UniProt P51654 25-580)
Test: cell-based or functional assay

Chain of human GPC3 full-length protein on cells (CHO-K1-hGPC3; cells expressing GPC3) (P51654 25-580, form in doubt): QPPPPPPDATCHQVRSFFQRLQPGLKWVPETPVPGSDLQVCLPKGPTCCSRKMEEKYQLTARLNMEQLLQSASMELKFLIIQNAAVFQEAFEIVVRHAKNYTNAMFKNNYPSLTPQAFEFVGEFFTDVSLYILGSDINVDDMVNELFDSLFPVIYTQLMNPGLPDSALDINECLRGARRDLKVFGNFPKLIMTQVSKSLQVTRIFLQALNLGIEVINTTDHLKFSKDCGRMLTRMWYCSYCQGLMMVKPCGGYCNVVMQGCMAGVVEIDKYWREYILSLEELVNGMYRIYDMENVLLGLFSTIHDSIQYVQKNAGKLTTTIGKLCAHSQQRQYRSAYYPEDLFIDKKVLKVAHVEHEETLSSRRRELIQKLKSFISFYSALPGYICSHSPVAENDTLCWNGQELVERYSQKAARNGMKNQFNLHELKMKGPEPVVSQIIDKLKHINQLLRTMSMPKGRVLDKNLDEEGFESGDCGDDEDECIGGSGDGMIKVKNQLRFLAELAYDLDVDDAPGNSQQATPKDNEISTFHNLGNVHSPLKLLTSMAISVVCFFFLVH

B1: humanized antibody Ab9 (antibody, human IgG1, kappa, V domains shown)
VH: QVQLVQSGAEVKKPGASVKVSCKASGYTFTDYEMHWVRQAPGQGLEWMGAIDPKTGRTAYNQKFKDRVTLTADKSTSTAYMELSSLTSEDTAVYYCTRYYSYAYWGQGTLVTVSS
VL: DVVMTQSPLSLSVTPGEPASISCRSSQSLVHSNRNTYLQWYLQKPGQPPQLLIYKVSNRFSGVPDRFSGSGSGTDFTLKISRVEAEDVGVYYCSQSIHVPYTFGQGTKLEIKR
- CDC, IC50: 0.308 nM
